# “And” between values parts separate entries of the source, which are not always exact repeats. Equal values may be shown once.
# Biological target: WD-40 repeat-containing protein 5 (WDR5), full-length (human) (UniProt P61964)
# Assay: ITC
row,Kd,Substance
1,8.1 µM and 9 µM,Histone H3 1–7aa H3R2me1 peptide (from UniProt P68431 2-8)
2,10.6 µM and 10.2 µM,Histone H3 1–7aa H3R2me2s peptide (from UniProt P68431 2-8)
3,11 µM and 11.8 µM,Histone H3 1–7aa unmodified peptide (from UniProt P68431 2-8)
